Reference: US20210238276A1 (INTEGRAL MOLECULAR, published 2021)
Changes are numbered by the printed parent chain. Where two headings read alike, the source gives them in different places.

How the values were obtained:
[1] = target: T1, hsGLUT4 G504A (human, UniProt P14672 1-509); experiment: flow cytometry, alanine-scan library in HEK-293T
T1 sequence: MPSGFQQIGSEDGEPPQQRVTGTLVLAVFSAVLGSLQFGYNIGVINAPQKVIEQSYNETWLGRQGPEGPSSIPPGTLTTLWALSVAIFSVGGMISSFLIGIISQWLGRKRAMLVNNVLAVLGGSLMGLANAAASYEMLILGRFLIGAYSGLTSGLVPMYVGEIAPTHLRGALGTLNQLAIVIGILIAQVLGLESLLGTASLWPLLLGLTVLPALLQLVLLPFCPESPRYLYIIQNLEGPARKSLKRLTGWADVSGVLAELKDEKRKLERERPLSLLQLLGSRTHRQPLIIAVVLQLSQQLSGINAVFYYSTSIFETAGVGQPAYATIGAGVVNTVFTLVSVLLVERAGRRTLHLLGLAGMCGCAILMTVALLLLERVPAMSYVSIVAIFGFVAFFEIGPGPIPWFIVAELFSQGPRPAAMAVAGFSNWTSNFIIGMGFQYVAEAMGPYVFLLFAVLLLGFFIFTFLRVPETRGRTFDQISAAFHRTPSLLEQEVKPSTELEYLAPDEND
How it was run: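 HEK-293T cells expressing individual GLUT4 alanine mutants were stained 48 h post-transfection with anti-GLUT4 scFv MAbs (2 μg/ml), then biotinylated secondary and streptavidin-PerCP, and read by high-throughput flow cytometry. Where used, cytochalasin B (10 uM final) was given for 30 min before and during primary antibody staining.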

[2] = target: T2, hsGLUT4 Y309I (human, UniProt P14672 1-509); experiment: flow cytometry, mutant in HEK-293T
T2 construct: The running text prints 'Y3091'; also called Y3091 (as printed in the running text); outward-open lock mutant
T2 sequence: T1 sequence with Y309I, A504G

[3] = target: T3, hsGLUT4 E345Q (human, UniProt P14672 1-509); experiment: flow cytometry, mutant in HEK-293T
T3 construct: also called inward-open lock mutant
T3 sequence: T1 sequence with E345Q, A504G

[4] = target: T4, human GLUT4 (hsGLUT4), wild type (UniProt P14672 1-509); experiment: BLI; avid
T4 chain: T1 sequence with A504G

[5] = target: T4, human GLUT4 (hsGLUT4), wild type; experiment: BLI; avid

Question: What does the source list for 1F8 (antibody)?
Answer: % of binding to wild type GLUT4 [1]: 120%; % of binding to wild type GLUT4 [2]: 101%; % of binding to wild type GLUT4 [3]: 91%

B1: AB108 (Fc fusion)
scFv: ALTQPSSVSANLGGTVKITCSGSSGSYGWYQQKAPGSAPVTLIYRNDKRPSDIPSRFSGSESGSTGTLTITGVQAEDEAVYFCGGYDSSAGYAAFGAGTTLTVLGQSSRSSGGGGSSGGGGSAVTLDESGGGLQTPGGALSLVCKASGFTFSSHGMGWVRQAPGKGLEWVGSISTGRYTFYAPAVKGRATISRDNGQSTLRLQLNNLRAEDTGTYYCTKCAGLNGCGGGEIDAWGHGTEVIVSS
notes: Bivalent scFv-Fc; also called MAb AB108; not shown: Fc fragment of human IgG1, cloned in frame with the scFv
Question: What does the source list for B1?
Answer: Kd [4]: 1.8 nM; % of binding to wild type GLUT4 [1]: 141%; Kd [5]: 1.8 nM; % of binding to wild type GLUT4 [2]: 67%; % of binding to wild type GLUT4 [3]: 78%

B2: AB101 (scFv)
scFv: ALTQPSSVSANPGETVKITCSGSSNSYGWYQQKSPGSAPVTVIYYNDKRPSDIPSRFSGSKSDSTHTLTITGVRAEDEAVYFCGSYDSTYVGIFGAGTTLTVLGQSSRSSGGGGSSGGGGSAVTLDESGGGLQTPGGTLSLVCKASGFTFSSNAMGWVRQAPGKGLEWVAGISSDGRYTKYGSAVKGRATISRDNGQSTVRLQLNNLRAEDTGTYFCAKAFGNNYRRIYAGQIDAWGHGTEVIVSS
notes: Chicken-derived clone used as a control; the four lead clones were tested as scFv-human IgG1 Fc; also called MAb AB101
Question: How did the “% of binding to wild type GLUT4” value [1] turn out when B2 was run?
Answer: 8%

Question: And the “% of binding to wild type GLUT4” value [2]?
Answer: 110%

Question: What about the “% of binding to wild type GLUT4” value [3] of the same molecule?
Answer: 96%

B3: AB111 (Fc fusion)
scFv: ALTQPSSVSANPGETVKITCSGSGSWYGWFQQKSPGSAPVTVIYSNDKRPSDIPSRFSGSKSGSTSTLTITGVQVEDEAVYYCGNWDIFGAGTTLTVLGQSSRSSGGGGSSGGGGSAVTLDESGGGLQTPGGALSLVCKASGFTFSSHGMGWVRQAPGKGLEWVASISTGRYTFYAPAVKGRATISRDNGQSTVRLQLNNLRAEDTATYYCTKCAGLNGCGGGEIDAWGHGTEVIVSS
notes: Bivalent scFv-Fc; also called MAb AB111; not shown: Fc fragment of human IgG1, cloned in frame with the scFv
Question: Which results are given for B3?
Answer: Kd [4]: 0.56 nM; % of binding to wild type GLUT4 [1]: 172%; Kd [5]: 0.56 nM; % of binding to wild type GLUT4 [2]: 154%; % of binding to wild type GLUT4 [3]: 125%

B4: AB105 (Fc fusion)
scFv: ALTQPSSVSANPGETVEITCSGDSSYYGWYQQKSPGSAPVTVIYANTNRPSDIPSRFSGSASGSTATLTITGVQAEDEAVYYCGSADSTYAGIFGAGTTLTVLGQSSRSSGGGGSSGGGGSAVTLDESGGGLQTPGGALSLICKASGFTFSSYTMNWVRQAPGKGLEWVGVISNSGRTTNYGAAVQGRATISRDNGQSTVRLQLNNLRAEDTGTYYCAKSSASASCAWWAGRSYPCSANRIDAWGHGTEVIVSS
notes: Bivalent scFv-Fc; also called MAb AB105; not shown: Fc fragment of human IgG1, cloned in frame with the scFv
Question: Which % of binding to wild type GLUT4 [3] does the source give for B4 here?
Answer: 16%
